We go through 1 protein from PMC7515715 (Nucleic Acids Research, 2020).

The series concerns the molecule itself. The series is described as follows: cryo-EM structure.

B1: E. coli stringent starvation protein A (SspA), wild type (natural protein)
chain: MAVAANKRSVMTLFSGPTDIYSHQVRIVLAEKGVSFEIEHVEKDNPPQDLIDLNPNQSVPTLVDRELTLWESRIIMEYLDERFPHPPLMPVYPVARGESRLYMHRIEKDWYTLMNTIINGSASEADAARKQLREELLAIAPVFGQKPYFLSDEFSLVDCYLAPLLWRLPQLGIEFSGPGAKELKGYMTRVFERDSFLASLTEAEREMRLGRS
As a reminder, the stoichiometry N is a count of units in the complex or per binding partner. B1: the “stoichiometry N” value was 2.
